These results are taken from article PMC5663884, “Compositional and expression analyses of the glideosome during the Plasmodium life cycle reveal an additional myosin light chain required for maximum motility” (The Journal of Biological Chemistry, 2017).

One series concerns MyoA. Briefly: immunoprecipitation with GFP-specific antibodies, Western blot: MyoA-GFP. In kind it is binding, P. falciparum. The note with it: schizont lysate, probed with anti-PfELC antibodies. As to the method:
(§1) Parasite lysates were precleared by incubation with blocked agarose beads for 1 h, and then the supernatant was incubated with GFP-Trap agarose beads for 2 h at 4 °C with end-over-end rotation. […] Finally, the beads were resuspended in 5 volumes of 2× SDS-PAGE sample buffer and boiled for 5 min before fractionation of the proteins by SDS-PAGE.
A general note: A western blot detects proteins with antibodies after separation by electrophoresis.

The subject of the next series is MyoB complex. Briefly: immunoprecipitation with GFP-specific antibodies, Western blot: MyoB-GFP. In kind it is binding, P. falciparum. Conditions: schizont lysate, probed with anti-PfELC antibodies. As to the method: as §1
The nature of series [1]: circular dichroism of recombinant PfELC. In kind it is physicochemical. Here is the method: Far-UV CD spectra were recorded on a Jasco J-815 spectropolarimeter fitted with a cell holder thermostatted by a CDF-426S Peltier unit. CD measurements were made at a protein concentration of 10 μM PfELC in 25 mM Tris-HCl, pH 8.0, 50 mM NaCl using fused silica cuvettes with a 1-mm path length (Hellma). All spectra were recorded with 0.1 nm resolution and baseline-corrected by subtraction of the buffer spectrum. Secondary structure content was estimated using methods described by Sreerama and Woody ([62]).
In general terms: CD spectra are sensitive to the conformation of chiral molecules.

Another series has as its system MTIP. The note with it: 3D7 schizont or merozoite lysate, PfELC-specific antibodies.
[2] abbreviates: far-UV CD, 10 μM PfELC, 25 mM Tris-HCl pH 8.0, 50 mM NaCl.

In the case of essential light chain [PfELC], in the series with MyoA, the “presence in MyoA-GFP immunoprecipitate” value was “a 14-kDa protein associated with MyoA in the glideosome complex”. The “presence in MyoB-GFP immunoprecipitate” value with MyoB complex is “none was detected associated with the MyoB complex”. Also, the “effect of calcium on near- or far-UV CD spectrum” value in series [1] (1 mM calcium ions) is “no effect on either the near- or far-UV spectrum”. In series [1] (setting [2]), the turn content worked out at 20%, the α helix content was 32% and the β sheet content is 17%. In addition, the “presence in anti-MTIP immunoprecipitate” value with MTIP was “present with MTIP in the same complex”.
